Test results published in the Human Domainome abundance scans (Beltran et al. 2025).
± gives the uncertainty stated by the source.

B1: Gamma-crystallin S, residues 96 to 176; numbered along this chain, P22914 (parent)
chain: IQIFEKGDFSGQMYETTEDCPSIMEQFHMREIHSCKVLEGVWIFYELPNYRGRQYLLDKKEYRKPIDWGAASPAVQSFRRI

Variants of: B1
Test: abundance fitness (aPCA) (normalised: wild type 0, dead -1); higher = more abundant; growth selection in yeast, the domain comes from the species named
Details: Homo sapiens

Abundance fitness, by site and new letter:
D58: G 0.031 ± 0.12 | K 0.012 ± 0.34 | P -0.342 ± 0.24 | R 0.04 ± 0.11 | S 0.014 ± 0.16 | T 0.008 ± 0.2 | V 0.023 ± 0.16 | W -0.461 ± 0.17 | Y -0.067 ± 0.22
K59: A 0.012 ± 0.099 | C -0.104 ± 0.18 | D -0.153 ± 0.18 | E -0.31 ± 0.33 | F -0.107 ± 0.27 | G -0.133 ± 0.16 | H 0.323 ± 0.39 | I 0.026 ± 0.2 | M -0.136 ± 0.31 | P -0.229 ± 0.21 | Q -0.022 ± 0.21 | T 0.089 ± 0.38 | V 0.119 ± 0.15 | W -0.084 ± 0.18 | Y -0.077 ± 0.19
K60: A -0.001 ± 0.17 | C 0.021 ± 0.23 | D -0.251 ± 0.49 | E -0.049 ± 0.27 | G 0.017 ± 0.086 | I -0.18 ± 0.33 | L -0.035 ± 0.13 | M 0.078 ± 0.17 | N 0.111 ± 0.25 | P -0.154 ± 0.18 | Q 0.064 ± 0.28 | R -0.143 ± 0.14 | S 0.005 ± 0.13 | V -0.242 ± 0.18 | W -0.116 ± 0.17
E61: H -0.205 ± 0.44 | L -0.135 ± 0.26 | M -0.028 ± 0.41 | N 0.035 ± 0.45 | Q -0.05 ± 0.21 | S -0.358 ± 0.22 | V 0.084 ± 0.23 | W 0.086 ± 0.17
Y62: A -0.099 ± 0.17 | C -0.162 ± 0.34 | F 0.16 ± 0.43 | G -0.075 ± 0.34 | H 0.117 ± 0.33 | M 0.116 ± 0.15 | N 0.002 ± 0.17 | P 0.177 ± 0.29 | S -0.129 ± 0.11 | T -0.174 ± 0.28 | V -0.184 ± 0.16 | W 0.281 ± 0.36
R63: A -0.098 ± 0.23 | D -0.051 ± 0.37 | E -0.032 ± 0.14 | F -0.025 ± 0.31 | G 0.092 ± 0.14 | K -0.093 ± 0.21 | L 0.133 ± 0.13 | P -0.096 ± 0.46 | S -0.022 ± 0.16 | T -0.102 ± 0.42 | V -0.118 ± 0.13 | W 0.065 ± 0.19 | Y -0.158 ± 0.34
K64: A 0.034 ± 0.34 | C -0.146 ± 0.16 | D -0.118 ± 0.39 | G 0.031 ± 0.13 | H -0.372 ± 0.29 | I -0.368 ± 0.35 | L -0.07 ± 0.12 | P -0.215 ± 0.15 | Q -0.063 ± 0.3 | R -0.146 ± 0.11 | T -0.164 ± 0.17 | V 0.002 ± 0.12 | W -0.24 ± 0.2 | Y -0.026 ± 0.29
P65: A 0.094 ± 0.11 | C -0.184 ± 0.2 | E -0.004 ± 0.28 | G -0.009 ± 0.14 | L -0.064 ± 0.12 | N -0.284 ± 0.34 | Q 0.045 ± 0.35 | R 0.033 ± 0.11 | S -0.008 ± 0.2 | T 0.059 ± 0.19 | V 0.141 ± 0.083 | W -0.024 ± 0.16 | Y 0.199 ± 0.3
I66: A -0.032 ± 0.18 | C 0.131 ± 0.18 | E 0.007 ± 0.16 | G -0.074 ± 0.083 | K -0.432 ± 0.28 | L -0.008 ± 0.13 | M -0.022 ± 0.45 | Q 0.185 ± 0.46 | R 0.03 ± 0.2 | S 0.061 ± 0.46 | T -0.047 ± 0.22 | W 0.011 ± 0.19 | Y -0.2 ± 0.36
D67: A 0.149 ± 0.2 | E 0.069 ± 0.26 | F -0.036 ± 0.31 | G -0.098 ± 0.19 | I 0.127 ± 0.3 | K -0.127 ± 0.22 | L -0.321 ± 0.15 | P -0.154 ± 0.12 | Q -0.034 ± 0.28 | R 0.146 ± 0.12 | S 0.037 ± 0.11 | T -0.262 ± 0.35 | W 0.053 ± 0.18 | Y -0.144 ± 0.27
W68: A -0.167 ± 0.14 | C -0.026 ± 0.18 | E -0.059 ± 0.14 | G -0.139 ± 0.11 | K -0.067 ± 0.15 | L -0.044 ± 0.17 | M 0.131 ± 0.14 | P -0.289 ± 0.15 | R -0.169 ± 0.11 | S 0.006 ± 0.085 | T 0.089 ± 0.2 | Y -0.425 ± 0.45
G69: C -0.242 ± 0.21 | D -0.155 ± 0.13 | E 0.006 ± 0.21 | I 0.09 ± 0.22 | K -0.127 ± 0.18 | L 0.022 ± 0.13 | M 0.052 ± 0.23 | P -0.294 ± 0.18 | Q -0.166 ± 0.19 | R 0.012 ± 0.11 | S 0.071 ± 0.1 | V -0.05 ± 0.12 | W -0.018 ± 0.12
A70: D -0.017 ± 0.16 | E -0.004 ± 0.093 | F -0.025 ± 0.18 | G 0.108 ± 0.099 | H 0.32 ± 0.27 | I 0.111 ± 0.18 | K 0.169 ± 0.37 | M -0.023 ± 0.13 | P 0.042 ± 0.3 | Q -0.057 ± 0.14 | R 0.104 ± 0.093 | T -0.037 ± 0.2 | V -0.003 ± 0.11 | W -0.147 ± 0.16 | Y 0.258 ± 0.19
A71: C -0.048 ± 0.16
